This note sets out measurements from patent US8124332B2, “Methods of using sIP-10, CD26 inhibitors and CXCR3 levels in a sample to assess clearance of infection, response to interferon therapy, and treating chronic infections” (Institut Pasteur, priority 2006, dated 2012).

One test concerns CXCR3+ cells. As to the kind of experiment: Lymphocyte chemotaxis assay. The class given is cell-based, human. Particulars: PHA-T blasts, chemokine in bottom chamber, 2 hours at 37° C.
For test [1], the target named is T1, CXCR3 (Homo sapiens, UniProt P49682).
T1 sequence (P49682 1-368): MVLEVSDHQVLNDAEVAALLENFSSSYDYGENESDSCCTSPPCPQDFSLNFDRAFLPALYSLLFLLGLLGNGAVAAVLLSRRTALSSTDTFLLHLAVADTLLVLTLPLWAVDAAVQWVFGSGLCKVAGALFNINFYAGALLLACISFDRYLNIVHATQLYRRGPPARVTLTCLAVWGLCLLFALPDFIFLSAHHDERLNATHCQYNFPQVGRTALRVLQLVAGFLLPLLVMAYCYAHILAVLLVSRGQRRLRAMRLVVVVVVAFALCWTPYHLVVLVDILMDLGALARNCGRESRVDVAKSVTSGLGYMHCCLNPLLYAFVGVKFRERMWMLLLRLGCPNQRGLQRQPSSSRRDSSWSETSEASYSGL
As to the kind of experiment: Receptor internalization in primary PBMCs. The class given is cell-based. Further details: endogenous in cells; host or cells: primary PBMCs. An excerpt: (§1) In order to test the hypothesis, it was necessary to generate novel reagents. First, recombinant full length CXCL10 (1-77) was exposed to recombinant DPP4 and cleavage was monitored by SELDI mass spectroscopy (FIG. 18A). […] Next, the inventors performed in vitro studies confirming that CXCL10 (1-77) but not CXCL10 (3-77) is capable of: (i) directing the migration of CXCR3^+ cells (FIG. 18B); (ii) mediating receptor internalization in primary PBMCs (not shown); and (iii) triggering a Ca^++ flux in CHO cells transfected with a CXCR3 expressing plasmid (FIGS. 18C, 18D). […] To date, however, there has been no in vivo evidence to support a role for CXCL10 antagonism in disease pathogenesis. In part, the challenge in establishing in vivo evidence of this mechanism of immune regulation is due to the inability to discriminate the two forms of the chemokine by a sensitive, immune-based assay.

The target of test [2] is T1, CXCR3. As to the kind of experiment: Ca++ flux in CHO cells transfected with a CXCR3 expressing plasmid. Format: cell-based. Also on record: transfected with a plasmid encoding the full-length open reading frame of CXCR3; expressed in transfected cells; plasmid from Dr. C P Tensen, Leiden.
Description: as §1, with “In part, the challenge in establishing in vivo evidence of this mechanism of immune regulation is due to the inability to discriminate the two forms of the chemokine by a sensitive, immune-based assay.” left out
To generate CXCL10 (3-77), recombinant human CXCL10 (Peprotech, Rocky Hill, N.Y. USA) was incubated with recombinant DPP4 (Sigma) in a 100 mM Tris-HCL pH 8 solution, for 2 h at 37° C. […] Arrays were incubated and washed as per manufacturers instructions and analyzed using the ProteinChip System Series 4000 (Ciphergen). […] Data were analyzed using CiphergenExpress Software. […] Lymphocytes were allowed to migrate for 2 hours at 37° C. and cells in the bottom chamber were counted using a Guava cytometer (Guava Technologies, C A, USA). Calcium-flux assays: Increased intracellular [Ca^2+] in response to CXCR3 signaling were monitored by FACS. […] Ca^++ release was measured using a Canto II Cytometer. […]

For test [3], the system named is plasma DPP activity (X-prolyl DPP). Conditions: plasma of patients with HCV infection.

Consider “CXCL10 (1-77): recombinant full length secreted human CXCL10, agonist form”, for which, in the test with CXCR3+ cells, the “directing the migration of CXCR3+ cells” value is reported as “capable”. Besides, the mediating receptor internalization result in the test with CXCR3 [1] was “capable”. The “triggering a Ca++ flux” value in the test with CXCR3 [2] (CHO cells transfected with CXCR3) is recorded as “capable”.

For the substance “CXCL10 (3-77): NH2-terminal truncated CXCL10 generated by DPP4 cleavage of two amino acids, antagonist form”, in the test with CXCR3 [2] (5 min pre-treatment, then CXCL10 (1-77)), the “antagonism of CXCL10 (1-77) induced Ca++ mobilization” value is listed as “antagonized”.

With isoleucine-proline-isoleucine [IPI], in test [3], the “inhibition of the enzymatic activity (plasma DPP activity)” value is reported as more than 98%.
